Data on three molecules can be found in US20120058906A1 (published 2012).

For experiment [1], the target named is T1, rHuman P-Cadherin/Fc Chimera, CF (R&D Systems Cat#861-PC) (human, UniProt P22223 108-654).
T1 construct: Bought Fc chimera; also called CDH3; not shown: Fc of the bought chimera
The experiment can be described thus: ECL (MSD multi-spot), antigen on plate, Fab 10 nM.

Experiment [2] has as its target T2, rHuman P-Cadherin/Fc Chimera, CF (R&D Systems Cat#861-PC) (human, UniProt P22223 108-654).
T2 construct: Purchased Fc chimera; not shown: Fc portion of the purchased chimera
The experiment is described as follows: MSD ECL multi-spot plate, antigen immobilized; Fab 0.32 nM; blank spot 513.

For experiment [3], the target named is T3, rHuman HGF R/c-MET/Fc Chimera, CF (R&D Systems Cat#358-MT/CF) (human, UniProt P08581 25-932).
T3 construct: Purchased Fc chimera; also called HGF R/Fc; not shown: Fc portion of the purchased chimera
The description is as above.

Experiment [4] addresses T4, rHuman Erythropoietin R/Fc Chimera, CF (R&D Systems Cat#963-ER) (human, UniProt P19235 25-250).
T4 construct: Purchased Fc chimera; also called EPO R/Fc; Epo R; not shown: Fc portion of the purchased chimera
T4 sequence: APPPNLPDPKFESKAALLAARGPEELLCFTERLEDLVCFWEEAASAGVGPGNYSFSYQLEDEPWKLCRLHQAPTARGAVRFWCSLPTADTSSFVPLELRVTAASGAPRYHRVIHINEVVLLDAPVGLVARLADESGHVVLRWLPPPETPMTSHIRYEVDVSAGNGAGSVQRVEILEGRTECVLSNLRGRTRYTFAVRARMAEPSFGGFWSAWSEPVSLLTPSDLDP
The description is as above.

The target in experiment [5] is T5, rHuman ErbB2/Fc Chimera, CF (R&D Systems Cat#1129-ER) (human, UniProt P04626 23-652).
T5 construct: Purchased Fc chimera; also called HER2/neu; not shown: Fc portion of the purchased chimera
Described as above.

The target in experiment [6] is T6, Recombinant Human DLL4 (R&D Systems Cat#1506-D4/CF) (human, UniProt Q9NR61 27-524).
T6 construct: Purchased recombinant protein; also called delta-like protein 4
Described as above.

The target of experiment [7] is T7, rHuman Notch-1/Fc Chimera, CF (R&D Systems Cat#3647-TK) (human, UniProt P46531 19-526).
T7 construct: Purchased Fc chimera; not shown: Fc portion of the purchased chimera
Described as above.

The target of experiment [8] is T8, rHuman CD44/Fc Chimera, CF (R&D Systems Cat#3660-CD) (human, UniProt P16070 21-220).
T8 construct: Purchased Fc chimera; not shown: Fc portion of the purchased chimera
The description is as above.

For experiment [9], the target named is T9, rHuman IGF-1 sR (IGF-1 sR), CF (R&D Systems Cat#391-GR) (human, UniProt P08069 31-932).
T9 construct: Purchased soluble receptor; also called insulin-like growth factor-1 soluble receptor; IGF-R1
The description is as above.

Experiment [10] deals with T10, rHuman EGF R/Fc Chimera, CF (R&D Systems Cat#344-ER) (human, UniProt P00533 25-645).
T10 construct: Purchased Fc chimera; not shown: Fc portion of the purchased chimera
The description is as above.

Experiment [11] addresses T11, rHuman ErbB2/Fc Chimera, CF (R&D Systems Cat#1129-ER) (human, UniProt P04626 23-652).
T11 construct: Bought reagent; also called HER2/neu; human epidermal growth factor 2 receptor; Fc part of the bought chimera not given
The experiment can be described thus: ECL (MSD multi-spot), antigen spotted on plate; Fab 705 nM; blank spot 483.

Experiment [12] has as its target T12, Recombinant Human DLL4 (R&D Systems Cat#1506-D4/CF) (human, UniProt Q9NR61 27-524).
T12 construct: Bought reagent; also called delta-like protein 4
The experiment is described as above.

Experiment [13] has as its target T13, rHuman Notch-1/Fc Chimera, CF (R&D Systems Cat#3647-TK) (human, UniProt P46531 19-526).
T13 construct: Bought reagent; Fc part of the bought chimera not given
The description is as above.

Experiment [14] deals with T14, rHuman CD44/Fc Chimera, CF (R&D Systems Cat#3660-CD) (human, UniProt P16070 21-220).
T14 construct: Bought reagent; Fc part of the bought chimera not given
The description is as above.

Experiment [15] addresses T15, rHuman P-Cadherin/Fc Chimera, CF (R&D Systems Cat#861-PC) (human, UniProt P22223 108-654).
T15 construct: Bought reagent; also called CDH3; Fc part of the bought chimera not given
The description is as above.

In experiment [16] the target is T16, rHuman IGF-1 sR (IGF-1 sR), CF (R&D Systems Cat#391-GR) (human, UniProt P08069 31-932).
T16 construct: Bought soluble receptor; also called insulin-like growth factor-1 soluble receptor; IGF-R1
The experiment is described as above.

For experiment [17], the target named is T17, rHuman EGF R/Fc Chimera, CF (R&D Systems Cat#344-ER) (human, UniProt P00533 25-645).
T17 construct: Bought reagent; also called epidermal growth factor receptor; Fc part of the bought chimera not given
The description is as above.

The target in experiment [18] is T18, rHuman HGF R/c-MET/Fc Chimera, CF (R&D Systems Cat#358-MT/CF) (human, UniProt P08581 25-932).
T18 construct: Bought reagent; also called HGF R/Fc; hepatocyte growth factor receptor; Fc part of the bought chimera not given
The experiment is described as above.
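Further: blank spot per well as comparator with Hit at signal to blank ratio of 4 or more.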

B1: Fab VH1-46_IGHD6-6*01_IGHJ1*01_S102A_S103P_S104F & L6_IGKJ1*01_S30N (Fab, V domains shown)
VH: QVQLVQSGAEVKKPGASVKVSCKASGYTFTSYYMHWVRQAPGQGLEWMGIINPSGGSTSYAQKFQGRVTMTRDTSTSTVYMELSSLRSEDTAVYYCAREEYAPFSAEYFQHWGQGTLVTVSS
VL: EIVLTQSPATLSLSPGERATLSCRASQSVNSYLAWYQQKPGQAPRLLIYDASNRATGIPARFSGSGSGTDFTLTISSLEPEDFAVYYCQQRSNWPPWTFGQGTKVEIKR
notes: Fab
Take B1: the ECL signal in [1] worked out at 283 ECL signal.

B2: Fab VH5-51_IGHD5-18*01>3_IGHJ4*01_G100R & V3-4_IGLJ1*01 (Fab, V domains shown)
VH: EVQLVQSGAEVKKPGESLKISCKGSGYSFTSYWIGWVRQMPGKGLEWMGIIYPGDSDTRYSPSFQGQVTISADKSISTAYLQWSSLKASDTAMYYCARRRYSYGYDYFDYWGQGTLVTVSS
VL: QTVVTQEPSFSVSPGGTVTLTCGLSSGSVSTSYYPSWYQQTPGQAPRTLIYSTNTRSSGVPDRFSGSILGNKAALTITGAQADDESDYYCVLYMGSGISYVFGTGTKVTVL
notes: It was expressed as a Fab: CH1 with tags from Plasmid A and lambda CL from Plasmid E; also called Fab No. 23
As to B2, the ECL signal in [2] is 656 ECL signal; in experiment [3] it was 1290 ECL signal; in [4] it was 851 ECL signal; in experiment [5], 1480 ECL signal; in experiment [6], 1210 ECL signal; in experiment [7] it was 983 ECL signal. Further, the ECL signal in experiment [8] stood at 877 ECL signal; in experiment [9] it was 1250 ECL signal; in experiment [10] it was 1220 ECL signal.

B3: Fab VH1-46_IGHD3-10*01_IGHJ4*01 & B3_IGKJ1*01 (Fab, V domains shown)
VH: QVQLVQSGAEVKKPGASVKVSCKASGYTFTSYYMHWVRQAPGQGLEWMGIINPSGGSTSYAQKFQGRVTMTRDTSTSTVYMELSSLRSEDTAVYYCAREYYYGSGSYYNDYFDYWGQGTLVTVSS
VL: not shown
notes: also called IGHV1-46*01
As to B3, the ECL signal in experiment [11] came out at 671; in experiment [12] it was 981; in [13], 958; in experiment [14] it was 693; in experiment [15] it was 827; in experiment [16], 630. Further, the ECL signal in experiment [17] is 692; in experiment [18], 839.
